Measurements reported in article PMC8401544, “Cytotoxicity of Frutalin on Distinct Cancer Cells Is Independent of Its Glycosylation” (Molecules, 2021).

B1: Frutalin produced in E. coli cleaved from TrxFTL (cFTL) (natural protein, Artocarpus incisa)
chain: GAMGNQQSGKSQTVIVGPWGAKVSTSSNGKAFDDGAFTGIREINLSYNKETAIGDFQVVYDLNGSPYVGQNHKSFITGFTPVKISLDFPSEYIMEVSGYTGNVSGYVVVRSLTFKTNKKTYGPYGVTSGTPFNLPIENGLIVGFKGSIGYWLDYFSMYLSL
notes: residues left after TEV cleavage (GA) and MG from the cloning restriction site; not glycosylated; 17421.61 Da by calculation; also called cleaved FTL; FTL cleaved from TrxFTL; source: E. coli BL21(DE3) (NZYBL21), purified (IMAC, TEV digestion, reverse IMAC on Ni-NTA); not shown: TrxA, N-terminal, cleaved; His6, N-terminal, cleaved
B2: Frutalin produced in E. coli in fusion with TrxA (TrxFTL) (natural protein, Artocarpus incisa)
chain: SSGENLYFQGAMGNQQSGKSQTVIVGPWGAKVSTSSNGKAFDDGAFTGIREINLSYNKETAIGDFQVVYDLNGSPYVGQNHKSFITGFTPVKISLDFPSEYIMEVSGYTGNVSGYVVVRSLTFKTNKKTYGPYGVTSGTPFNLPIENGLIVGFKGSIGYWLDYFSMYLSL
notes: 13 extra amino acids between the 6xHistag and frutalin; not glycosylated; Vector pETM20; also called FTL in fusion with TrxA; source: E. coli BL21(DE3) (NZYBL21), purified (IMAC, Nickel HisTrap); not shown: TrxA, N-terminal, kept; His6, internal (between TrxA and the TEV recognition site), kept

Molecular target: the molecule itself
Test: dynamic light scattering; protein at 0.8-1.0 mg/mL in phosphate buffer, room temperature, filtered through 0.45 um; size distribution by intensity; measured diameter compared with that expected from the theoretical MW of a tetramer

Row | Protein | stoichiometry N
1 | B1 | 4
2 | B2 | 4
